{"source": "paper PMC5499549", "about": "“DNA substrate recognition and processing by the full-length human UPF1 helicase”", "binders": {"B1": {"name": "d(T)55 (ssDNA)", "DNA": "TTTTTTTTTTTTTTTTTTTTTTTTTTTTTTTTTTTTTTTTTTTTTTTTTTTTTTT"}}, "key": {"hUPF1 (full-length) [1]": {"target": "T1, hUPF1 (full-length) (Homo sapiens, UniProt Q92900-2 1-1118)", "T1 sequence": "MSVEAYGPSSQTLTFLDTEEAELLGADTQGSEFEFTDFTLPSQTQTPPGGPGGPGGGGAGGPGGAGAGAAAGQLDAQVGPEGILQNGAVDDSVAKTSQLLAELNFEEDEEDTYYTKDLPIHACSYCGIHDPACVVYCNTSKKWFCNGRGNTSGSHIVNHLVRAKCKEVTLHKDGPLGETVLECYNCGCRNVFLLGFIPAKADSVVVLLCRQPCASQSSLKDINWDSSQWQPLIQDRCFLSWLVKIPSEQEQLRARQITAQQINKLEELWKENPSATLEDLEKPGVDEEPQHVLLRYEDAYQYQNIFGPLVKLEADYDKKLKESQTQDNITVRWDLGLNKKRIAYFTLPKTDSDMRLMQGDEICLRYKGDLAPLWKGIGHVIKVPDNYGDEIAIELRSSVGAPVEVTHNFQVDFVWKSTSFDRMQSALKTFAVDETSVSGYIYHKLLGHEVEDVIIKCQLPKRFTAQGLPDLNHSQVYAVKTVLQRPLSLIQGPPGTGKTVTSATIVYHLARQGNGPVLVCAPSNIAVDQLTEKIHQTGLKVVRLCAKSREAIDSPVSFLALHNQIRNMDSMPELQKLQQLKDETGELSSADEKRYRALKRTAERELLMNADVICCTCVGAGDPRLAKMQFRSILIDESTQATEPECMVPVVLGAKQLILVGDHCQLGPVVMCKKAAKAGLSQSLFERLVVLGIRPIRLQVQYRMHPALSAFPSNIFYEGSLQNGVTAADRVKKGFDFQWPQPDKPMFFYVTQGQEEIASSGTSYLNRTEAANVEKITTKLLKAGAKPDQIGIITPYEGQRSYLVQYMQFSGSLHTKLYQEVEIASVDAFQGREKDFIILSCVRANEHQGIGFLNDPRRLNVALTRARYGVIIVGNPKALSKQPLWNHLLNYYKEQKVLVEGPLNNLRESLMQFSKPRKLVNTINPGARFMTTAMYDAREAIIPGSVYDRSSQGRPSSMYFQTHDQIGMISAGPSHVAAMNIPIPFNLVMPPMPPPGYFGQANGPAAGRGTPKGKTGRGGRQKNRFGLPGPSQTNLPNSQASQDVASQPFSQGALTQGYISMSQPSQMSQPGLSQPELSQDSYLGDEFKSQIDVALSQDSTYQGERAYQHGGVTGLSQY", "assay": "competition; vs 0.25 nM 32P-DNA35, 10 nM hUPF1; 25 mM HEPES-NaOH pH 7.2, 135 mM NaCl, 2 mM DTT, 1 mg/ml acetylated BSA, 0.1% NP40, 20 min; EMSA 20 C, MST 22 C (20 nM DNA); no nucleotide cofactor or Mg2+ unles", "details": "protein: recombinant, tags: GST and His tags removed (thrombin, TEV), residual ENLYFQ linker likely at C-terminus"}, "hUPF1 (full-length) [2]": {"target": "T1, hUPF1 (full-length)", "assay": "MST; fit up to 313 nM hUPF1; 25 mM HEPES-NaOH pH 7.2, 135 mM NaCl, 2 mM DTT, 1 mg/ml acetylated BSA, 0.1% NP40, 20 min; EMSA 20 C, MST 22 C (20 nM DNA); no nucleotide cofactor or Mg2+ unles", "details": "protein: recombinant; tags: GST and His tags removed (thrombin, TEV); residual ENLYFQ linker likely at C-terminus; label: 5' Alexa 647"}, "hUPF1 (full-length) [3]": {"target": "T1, hUPF1 (full-length)", "assay": "MST; 25 mM HEPES-NaOH pH 7.2, 135 mM NaCl, 2 mM DTT, 1 mg/ml acetylated BSA, 0.1% NP40, 20 min; EMSA 20 C, MST 22 C (20 nM DNA); no nucleotide cofactor or Mg2+ unles", "details": "protein: recombinant; tags: GST and His tags removed (thrombin, TEV); residual ENLYFQ linker likely at C-terminus; label: 5' Alexa 647"}, "hUPF1 (full-length) [4]": {"target": "T1, hUPF1 (full-length)", "assay": "EMSA; most or all bound at top concentrations; multimerization; 25 mM HEPES-NaOH pH 7.2, 135 mM NaCl, 2 mM DTT, 1 mg/ml acetylated BSA, 0.1% NP40, 20 min; EMSA 20 C, MST 22 C (20 nM DNA); no nucleotide cofactor or Mg2+ unles", "details": "protein: recombinant; tags: GST and His tags removed (thrombin, TEV); residual ENLYFQ linker likely at C-terminus; label: 32P"}, "hUPF1 (full-length) [5]": {"target": "T1, hUPF1 (full-length)", "assay": "EMSA; 25 mM HEPES-NaOH pH 7.2, 135 mM NaCl, 2 mM DTT, 1 mg/ml acetylated BSA, 0.1% NP40, 20 min; EMSA 20 C, MST 22 C (20 nM DNA); no nucleotide cofactor or Mg2+ unles", "details": "protein: recombinant; tags: GST and His tags removed (thrombin, TEV); residual ENLYFQ linker likely at C-terminus; label: 32P (EMSA)"}, "hUPF1 (full-length) [6]": {"target": "T1, hUPF1 (full-length)", "assay": "MST; biphasic, low-amplitude first phase; 25 mM HEPES-NaOH pH 7.2, 135 mM NaCl, 2 mM DTT, 1 mg/ml acetylated BSA, 0.1% NP40, 20 min; EMSA 20 C, MST 22 C (20 nM DNA); no nucleotide cofactor or Mg2+ unles", "details": "protein: recombinant; tags: GST and His tags removed (thrombin, TEV); residual ENLYFQ linker likely at C-terminus; label: 5' Alexa 647"}, "hUPF1 (full-length) [7]": {"target": "T1, hUPF1 (full-length)", "assay": "EMSA; 25 mM HEPES-NaOH pH 7.2, 135 mM NaCl, 2 mM DTT, 1 mg/ml acetylated BSA, 0.1% NP40, 20 min; EMSA 20 C, MST 22 C (20 nM DNA); no nucleotide cofactor or Mg2+ unles", "details": "protein: recombinant; tags: GST and His tags removed (thrombin, TEV); residual ENLYFQ linker likely at C-terminus; label: 5' 32P (EMSA)"}, "hUPF1 (full-length) [8]": {"target": "T1, hUPF1 (full-length)", "assay": "MST; fit up to 156 nM hUPF1; 25 mM HEPES-NaOH pH 7.2, 135 mM NaCl, 2 mM DTT, 1 mg/ml acetylated BSA, 0.1% NP40, 20 min; EMSA 20 C, MST 22 C (20 nM DNA); no nucleotide cofactor or Mg2+ unles", "details": "protein: recombinant; tags: GST and His tags removed (thrombin, TEV); residual ENLYFQ linker likely at C-terminus; label: 5' Alexa 647"}, "hUPF1 (full-length) [9]": {"target": "T1, hUPF1 (full-length)", "assay": "EMSA; equivalent to G4 ss precursor; 25 mM HEPES-NaOH pH 7.2, 135 mM NaCl, 2 mM DTT, 1 mg/ml acetylated BSA, 0.1% NP40, 20 min; EMSA 20 C, MST 22 C (20 nM DNA); no nucleotide cofactor or Mg2+ unles", "details": "protein: recombinant; tags: GST and His tags removed (thrombin, TEV); residual ENLYFQ linker likely at C-terminus; label: 32P"}, "hUPF1 (full-length) [10]": {"target": "T1, hUPF1 (full-length)", "assay": "EMSA; no nucleotide cofactor; 25 mM HEPES-NaOH pH 7.2, 135 mM NaCl, 2 mM DTT, 1 mg/ml acetylated BSA, 0.1% NP40, 20 min; EMSA 20 C, MST 22 C (20 nM DNA); no nucleotide cofactor or Mg2+ unles", "details": "protein: recombinant; tags: GST and His tags removed (thrombin, TEV); residual ENLYFQ linker likely at C-terminus; label: 5' 32P (EMSA)"}, "hUPF1 (full-length) [11]": {"target": "T1, hUPF1 (full-length)", "assay": "MST; second experimental group; fit up to 156 nM; 25 mM HEPES-NaOH pH 7.2, 135 mM NaCl, 2 mM DTT, 1 mg/ml acetylated BSA, 0.1% NP40, 20 min; EMSA 20 C, MST 22 C (20 nM DNA); no nucleotide cofactor or Mg2+ unles", "details": "protein: recombinant; tags: GST and His tags removed (thrombin, TEV); residual ENLYFQ linker likely at C-terminus; label: 5' Alexa 647"}}, "data": [{"binder": "UUUUUUUUUUUUUUUUUUUUUUUUUUUUUUUUUUU (ssRNA)", "note": "[(U)35]", "values": [{"measurement": "IC50", "setting": "hUPF1 (full-length) [1]; label: 32P (EMSA)", "result": 12.3, "unit": "nM"}]}, {"binder": "TTTTTTTTTTTTTTTTTTTTTTTTT (ssDNA)", "note": "[d(T)25-Alexa647]", "values": [{"measurement": "Kd", "setting": "hUPF1 (full-length) [2]", "result": "5.98 ± 0.51", "unit": "nM"}]}, {"binder": "TTTTTTTTTTTTTTT (ssDNA)", "note": "[d(T)15-Alexa647]", "values": [{"measurement": "Kd", "setting": "hUPF1 (full-length) [3]", "result": "39.4 ± 3.6", "unit": "nM"}]}, {"binder": "B1", "values": [{"measurement": "binding result", "setting": "hUPF1 (full-length) [4]", "result": "binds"}]}, {"binder": "AAAAAAAAAAAAAAAAAAAAAAAAAAAAAAAAAAA (ssRNA)", "note": "[(A)35]", "values": [{"measurement": "IC50", "setting": "hUPF1 (full-length) [1]; label: 32P (EMSA)", "result": 172, "unit": "nM"}, {"measurement": "binding signal", "setting": "hUPF1 (full-length) [5]", "result": "~5 fold higher affinity than (C)35"}]}, {"binder": "AAAAAAAAAAAAAAAAAAAAAAAAAAAAAAAAAAA (ssDNA)", "note": "[d(A)35-Alexa647]", "values": [{"measurement": "Kd", "setting": "hUPF1 (full-length) [6]", "result": "4200 ± 3730", "unit": "nM"}]}, {"binder": "CACAAGCAACCAATCGGTTCGACACTCATACTGGC (ssDNA)", "note": "[DNA35]", "values": [{"measurement": "binding signal", "setting": "hUPF1 (full-length) [7]", "result": "~3 fold higher affinity than RNA35"}, {"measurement": "IC50", "setting": "hUPF1 (full-length) [1]; label: 5' 32P (EMSA)", "result": 31.5, "unit": "nM"}]}, {"binder": "CACAAGCAACCAATCGGTTCGACACTCATACTGGC (ssDNA)", "note": "[DNA35-Alexa647]", "values": [{"measurement": "Kd", "setting": "hUPF1 (full-length) [8]", "result": "9.8 ± 1", "unit": "nM"}]}, {"binder": "CACAAGCAACCAAUCGGUUCGACACUCAUACUGGC (ssRNA)", "note": "[RNA35]", "values": [{"measurement": "IC50", "setting": "hUPF1 (full-length) [1]; label: 32P (EMSA)", "result": 50.4, "unit": "nM"}]}, {"binder": "TTTTTTTTTTTTTTTTTTTTTTTTTTTTTTTTTTTTTTTTTTTTT (ssDNA)", "note": "[d(T)45]", "values": [{"measurement": "binding result", "setting": "hUPF1 (full-length) [4]", "result": "binds"}]}, {"binder": "TTTTTTTTTTTTTTTTTT (ssDNA)", "note": "[d(T)18]", "values": [{"measurement": "binding result", "setting": "hUPF1 (full-length) [9]", "result": "binds"}]}, {"binder": "TTTTTTTTTTTTTTTTTTTTTTTTTTTTTTTTTTT (ssDNA)", "note": "[d(T)35]", "values": [{"measurement": "binding signal", "setting": "hUPF1 (full-length) [7]", "result": "~2 fold higher affinity than (U)35"}, {"measurement": "IC50", "setting": "hUPF1 (full-length) [1]; label: 5' 32P (EMSA)", "result": 11.5, "unit": "nM"}, {"measurement": "Kd", "setting": "hUPF1 (full-length) [10]", "result": "~1", "unit": "nM"}]}, {"binder": "TTTTTTTTTTTTTTTTTTTTTTTTTTTTTTTTTTT (ssDNA)", "note": "[d(T)35-Alexa647]", "values": [{"measurement": "Kd", "setting": "hUPF1 (full-length) [11]", "result": "6.01 ± 0.85", "unit": "nM"}, {"measurement": "Kd", "setting": "hUPF1 (full-length) [8]", "result": "4.05 ± 0.58", "unit": "nM"}]}]}
